From publication PMC8125234, “Cardiolipin Stabilizes and Increases Catalytic Efficiency of Carnitine Palmitoyltransferase II and Its Variants S113L, P50H, and Y479F” (International Journal of Molecular Sciences, 2021)

How the values were obtained:
[1] = system: CPT II WT; design: method as in PMID 26477380; settings: cited from earlier work
[2] = system: CPT II S113L; design: method as in PMID 27123472; settings: in vitro; cited from earlier work
[3] = Thermosensitivity of enzyme activity of recombinant CPT II enzymes (activity half-life after incubation); assay type: physicochemical; settings: 30 °C; 1 mg/mL enzyme
Procedure: To evaluate the enzyme behavior under different temperature conditions that are relevant under physiological conditions, we chose 30 (cold), 37 (normal), 40 (moderate fever) and 42 °C (high fever) for the experiments. The enzyme variants were expressed recombinantly in E. coli, carried a N-terminal histidine-tag and were purified by standard chromatography in the presence of a detergent (for experimental details, see Section 4.1 and Section 4.2). The impact of temperature was investigated by incubating purified CPT II variants at appropriate temperatures and determining their enzymatic activity after defined incubation periods. The enzyme assay was based on an adaptation of Rufer et al. for the transfer reaction of the palmitic acid from palmitoyl-CoA to L-carnitine (see Section 4.3).
Before activity measurements, the storage buffer of the enzymes was replaced with assay buffer (50 mM KH2PO4, 120 mM KCl, 1 mM EDTA-Na4) using vivaspin turbo 4 tubes (Satorius Stedim biotech GmbH, Göttingen, Germany) at 4 °C. […] After that, the protein concentration was determined using bicinchoninic acid (BCA) protein assay kit (Thermo Fisher Scientific GmbH, Berlin, Germany). […] The reverse reaction of CPT II was detected with the enzyme activity assay. […] The released CoA was then detected by the reaction of the free thiol group with DTNB, forming 5-mercapto-(2-nitrobenzoic acid). […]

[4] = nanoDSF thermostability of recombinant CPT II enzymes in assay buffer; assay type: physicochemical; settings: assay buffer; 1 mg/mL protein; nanoDSF
Procedure: The protein stability was investigated applying nano differential scanning fluorimetry (nanoDSF) using a protein concentration of 1 mg/mL in assay buffer. […] The heating rate has been set to 1 °C per min. A heating ramp from 15 to 95 °C was determined. The nanoDSF data were obtained using a Prometheus NT.48 device. First derivatives were calculated using PR.ThermControl software (NanoTemper Technologies GmbH, Munich, Germany). Experiments were performed at least three times independently as double determination.

[5] = Onset of aggregation by scattered light back reflection during heating ramp; assay type: physicochemical; settings: assay buffer; heating ramp 15 °C to 80 °C
Procedure: Supplementary materials can be found at https://www.mdpi.com/article/10.3390/ijms22094831/s1, Figure S1: Scattered light back reflection as measure for aggregation during the heating ramp from 15 °C to 80 °C of CPT II WT (black) and the variants P50H (red), S113L (blue) and Y479F (green) in assay buffer (magenta). The light scattering data were obtained simultaneously with nanoDSF data using the back reflection technology in a Prometheus NT.48 device. The unfolding of proteins leads to display of hydrophobic regions of the protein on the surface, which is followed by hydrophobic interaction of the protein molecules resulting in aggregation events. These aggregates are then detected via light scattering. […] The data allow the detection of onset of aggregation (Tagg) which differs clearly among the variants. The Tagg for WT is 38 °C, Y479F is 37 °C, S113L is 35 °C and P50H is 32 °C. […] Figure S2: The first derivatives of the transition curves of WT and the variants resulting from the ratio 350/330 nm were plotted against the temperature. The black, red, blue and green solid lines show the curves of WT and variants P50H, S113L and Y479F measured in assay buffer, respectively. The black, red, blue and green dashed lines show the maxima of the values of the first derivatives of the ratio 350 nm/330 nm of WT and variants P50H, S113L and Y479F, respectively. Figure S3: The effect of amino acid exchange in absence and presence of n-octyl-β-d-glucopyranoside (β-OG) on the stability of CPT II (1 mg/mL) assessed by nanoDSF. The TM of WT (37 °C) in buffer was used as reference value (ΔTM = 0 °C) to determine the ΔTM for the variants and the ΔTM for WT and variants in presence of β- OG. Error bars are SD derived from three independent experiments. Table S1. Comparison of the mean values of the half-lives (t1/2) of CPT II WT and the variants at 30 °C with the half-lives at 37, 40 or 42 °C. The differences of the half-lives for each CPT II enzyme between 37 and 40 or 42 °C as well as 40 and 42 °C are not significant. Number of experiments for each variant (n ≥ 3). Table S2. Comparison of the mean values of the half-lives (t1/2) between CPT II WT and the variants Y479F, S113L and P50H at 30, 37, 40 or 42 °C. n ≥ 3. Table S3. […] Comparison of the ∆TM-values of CPT II WT and the variants Y479F, S113L and P50H in buffer or in presence of 0.25 mM cardiolipin or 1% n-octyl-β-d-glucopyranoside (β-OG) assessed by nanoDSF (n ≥ 3). […] Comparison of the transition temperatures (TM) of WT and the variants Y479F, S113L and P50H in buffer with of 0.25 mM cardiolipin or 1% n-octyl-β-d-glucopyranoside (β-OG) assessed by nanoDSF (n ≥ 3). […]

[6] = substrate: C[N+](C)(C)C[C@H](O)CC(=O)[O-]; test: Determination of the kinetic parameters kcat and KM; assay type: biochemical, human; settings: other: P50H, L-carnitine varied, absence of CL, 25 °C
Procedure: Before activity measurements, the storage buffer of the enzymes was replaced with assay buffer (50 mM KH2PO4, 120 mM KCl, 1 mM EDTA-Na4) using vivaspin turbo 4 tubes (Satorius Stedim biotech GmbH, Göttingen, Germany) at 4 °C. The pH of assay buffer was adjusted with KOH to 7.4. The storage buffer was diluted at least 1:500 in assay buffer. In addition, before each experimental set up, the protein samples were centrifuged at 16,000× g for 5 min at 4 °C to remove any micro-aggregates. After that, the protein concentration was determined using bicinchoninic acid (BCA) protein assay kit (Thermo Fisher Scientific GmbH, Berlin, Germany). The enzyme activity of recombinant CPT II was performed following Rufer et al. with modifications described elsewhere. […] After pre-conditioning the mixture to 25 °C for 2 min, the reaction was started by adding 15 nM of recombinant enzyme. The reverse reaction of CPT II was detected with the enzyme activity assay. CPT II catalyzed the transfer of fatty acid residue from Pal-CoA to L-carnitine with release of CoA and Pal-carnitine. The released CoA was then detected by the reaction of the free thiol group with DTNB, forming 5-mercapto-(2-nitrobenzoic acid). This compound has a molar extinction coefficient of 13,600 M^−1 cm^−1 at a wavelength of 410 nm, and its formation was followed spectroscopically. […] The slope of the progress curve was used to determine the reaction velocity.
It is assumed that the reaction catalyzed by CPT II represents a ping-pong mechanism or compulsory order ternary-complex mechanism.
The kinetic parameters were determined by evaluating the obtained v/S characteristic according to the Michaelis–Menten Equation (1). The […] kcat was calculated using Equation (2):(1) v=Vmax∗[S]/KM+[S] (2) kcat=Vmax/cenzyme

CC(C)(COP(=O)(O)OP(=O)(O)OC[C@H]1O[C@@H](n2cnc3c(N)ncnc32)[C@H](O)[C@@H]1OP(=O)(O)O)[C@@H](O)C(=O)NCCC(=O)NCCSC(=O)CC(=O)O [malonyl-CoA, Malonyl-CoA]
Inhibition by malonyl-CoA [1]: not inhibited | Inhibition by malonyl-CoA [2]: abnormal enzyme inhibition

B1: CPT II variant P50H (Homo sapiens; P50H) (protein)
chain: SAGSGPGQYLQRSIVPTMHYQDSLHRLPIPKLEDTIRRYLSAQKPLLNDGQFRKTEQFCKSFENGIGKELHEQLVALDKQNKHTSYISGPWFDMYLSARDSVVLNFNPFMAFNPDPKSEYNDQLTRATNMTVSAIRFLKTLRAGLLEPEVFHLNPAKSDTITFKRLIRFVPSSLSWYGAYLVNAYPLDMSQYFRLFNSTRLPKPSRDELFTDDKARHLLVLRKGNFYIFDVLDQDGNIVSPSEIQAHLKYILSDSSPAPEFPLAYLTSENRDIWAELRQKLMSSGNEESLRKVDSAVFCLCLDDFPIKDLVHLSHNMLHGDGTNRWFDKSFNLIIAKDGSTAVHFEHSWGDGVAVLRFFNEVFKDSTQTPAVTPQSQPATTDSTVTVQKLNFELTDALKTGITAAKEKFDATMKTLTIDCVQFQRGGKEFLKKQKLSPDAVAQLAFQMAFLRQYGQTVATYESCSTAAFKHGRTETIRPASVYTKRCSEAFVREPSRHSAGELQQMMVECSKYHGQLTKEAAMGQGFDRHLFALRHLAAAKGIILPELYLDPAYGQINHNVLSTSTLSSPAVNLGGFAPVVSDGFGVGYAVHDNWIGCNVSSYPGRNAREFLQCVEKALEDMFDALEGKSIKS
notes: made in house; host or cells: Escherichia coli BL21Gold DE
Time to complete loss of activity [3]: ≤ 25 min | TM in Buffer [4]: 26.2 ± 0.3 °C | Onset of aggregation (Tagg) [5]: 32 °C | Km [6]: 12.8 ± 2.7 mM | kcat [6]: 138 ± 4.9 s⁻¹ | kcat/Km [6]: 10800 ± 2600 M⁻¹ s⁻¹
